Reference: the DeepSol protein solubility set

Assay: soluble on expression in E. coli; label from the status in PepcDB or PDB records

Sequence | soluble on expression in E. coli
MGSDKIHHHHHHMLRIFQGRPAVTIAAVLVAASVAGCAGKAKKPTLVYEERPVELLYSTGADRLDRGNWNEAVDYFREVERQHPYSEWSRRSILMTGYAHYMGNQYAEAIGDADRFISLYPGNPSAQYAFYLKAICYFEQIVDVNRDQAATEQALAALRDVVQRYPNTEYATDARLKIDMVNDQLAGKEMAIGRWYLKNGQTLAAIGRFKAVIERHQTTSHTPEALFRLVEAYLTIGLNEEAKRNGAVLGYNFPGDRWYVDAYRLLNDNGLRPAVEPLKAGAKRNALERILSKDKEATLAPPGERKAKKGLLGPLGM | not soluble
MRQRFLPLLALLSLLLPLPAPAAPTVSTVADQTGIALTIYNRNLGLVKDRREIRLAPGNGELRFMDVAAQIIPTSVSIASLAGGELQVLEQNYEYDLLSPQKLMDKYVGKEVKLHQKNPYTEREEVVTATLLSNNGGPVYRIGDEITFGHPGRLIFPGVPDDLIARPTLVWLLEGAAVEKRTIEASYLTGGISWRADYVVTLSEKDDQANLAGWVTIDNRSGAAYRNATLKLVAGDVNRVQEQSTRFAKSVRAEAMAPAPQFQEEAFFEYHLYTLQRPSTIKENQTKQINLVTADAVPVKKEFLLKGESFYYQSPAGEVEKQKVGVFVEMENRKEHNLGMPLPKGIVRVYKRDAGGSLQFVGEDTIDHTPEKETVRVKLGDAFDVVGERKQTEWRKVASDTYESAFEIRLRNHKKEDITVKVVEPVPGDWQMLSSSHPHEKGDAFSAVFKVPVPKDGEATLVYRVRMRYLEHHHHHH | soluble
MKILPLALFIIPFLAGCGANNTPPQTPIPGEKTSAKLRTLETGAAAIQSRPPVDAISTYLDGFHFYSGDKNGQMEAHHYVTVLNEDVMQAVIYDGNTKNARLMGVEYIISERLFKTLPPEEKKLWHSHQYEVKSGSLVAPGLPQVADKALMSKIVNTYGKTWHTWHTDRDKTLPMGIPALMMGFTGDGQLDPALLADRDRRLGIDTQAIKRERQDLPEHPVVKGANAWEQGEVIQLQRVQGSGEHGRGDTAHFGTSEQSRQLEHHHHHH | soluble
MEASSSAQAKIADMREKLGREVRVFETSSISQRPSQVSSADDESDDFYEFTPADFYRLLATKKEDKSLKTRKIREAEEAARRSKLTKAVIRVRFPDNHTLEATFHPSEKIQGLIDLVKRVVAHPDVPFYLYTTPPKKQIKDFSQDFYSAGFVPGAIVYFSNDQPKDDGGSSTPYLNEEILSLKDLEAMTKAVEPVESSSEPATVDSSAVPVEHERKSTEKKTTKPKWFKM | soluble
MIVYGLYKSPFGPITVAKNEKGFVMLDFCDCAERSSLDNDYFTDFFYKLDLYFEGKKVDLTEPVDFKPFNEFRIRVFKEVMRIKWGEVRTYKQVADAVKTSPRAVGTALSKNNVLLIIPCHRVIGEKSLGGYSRGVELKRKLLELEGIDVAKFIEK | soluble
MAHHHHHHMKARSSRPVTTITVTSEETIQTHNARDTPRTFEYKTKRNELMRRLEEMRNALEEDNNNNNKGSRVKLCYYDITFNCRDPVDVTVMSGFQRFEGLGDTLSGHMKCEEDDRHKFVGLIKEIIQLDVSHRARNMDKSEIAVVRIAANFKELNSTFTRSAATLL | not soluble
MGSDKIHHHHHHVLINQQYTRHGPDYRFGEQVTFLDVKQTFGFSHVRVGRWVTRDESRLAADLVFDSLADLAFILKLPPLKLGLRETVSLAFGHGGQKGVQAHYAPAARELALAKNAGAGALAHEFWHAFDHYIAAKSFKSSSKRFQCASDLWLSDLPIIEHPLNARLSEIFKVTFLSGNGDEPHDYVRRAIALDKKHGMQYFARPTEMMARAFEACIESYDDISNPYLVSGTRFSAMAKEGAYPDEAHRKVIFQALINYFEPLGMALSKHPLG | not soluble
MSLTNQVTYLFFHGMKQISEHLFTTEEQAIIARSKAEGSYMKAPNGQATNLNKKQWAQVRTRAFREWFGDWENNPDEASKVRDANGEPLVVYHGTPISRDQAADRSKFRIADDWEIQTINAPFHTFRGGAYNGLIFTSLTEEKARSIGETRSMSIPDSEDGREQWTTDSYVYDLFVNARQPFDVKNPNAVKDILDALEGQLTAYDFYLGMEVPVSRKEAEKILEGGNSWRVVETPSMQEIIRSRGYDAIHALDEGVQYMAVFAPNQLKASGKYLYSERNTGVFSPGNNDIRFREVHHGVPASFTGYRSMKTETVRNDNIPAVLAALREKLEDTEQEWQDRILDYIAENYPTQTTVSAQTRSPEGLKEREAMKKDKTLRKMKEEAVAALNAADEKVMEAFKKENGDILFREVKENDGGKSLVGLHNISEEKLLKALKLGGLANPSAAVIDIARQSHEGYGEISLILPSSMIDKRTGRNAGTFSGDAWTPVYPQIERQFSGDGSGRVRDAISRLPQEMQPNVRSAWNSYMDGRDEGSAFAYQFLYERGEAPEFRKIEPLFGEHLRNRISAIDALDDYDERNTALLEVYIEENFGGDQTKFKDYIETRKRVLQDKEGHHHHHH | not soluble
MGSDKIHHHHHHMNMAQVAVALAKLAGIRKALDLALNDDHKKAGRLPIQNFLIEEVGRYFTGAATQLSILKKELPDLFGDFVEMPVEPKTEMAKTSTEGAAQYRYARSQLEVLARDIDQIFELRANSELAPPLIAAATTRRVFISHGRAPDWREVQAYVEKDIGLPTLELAQEPNQGRTILAKLMEASGQCDSAVIVMTGDDLDAAGQARARENVIHEIGFFQGKYGLGRVCLLHEEGVSIPSNIHGLVYTPFPKGMVSACFGVLTRELKAFY | not soluble
MSTLEIKNLHAQVVPADESAAPKPILKGVNLTIKSGETHAIMGPNGSGKSTLAYTLSGHPRYEVTDGEVLLDGENILDMDIDERARAGLFLAMQYPTEIPGVSMANFLRSAATAVRGEAPKLREWVKEVKQAQQDLKIDKAFNERSVNEGFSGGEKKRHEVLQLDLLQPKFAVMDETDSGLDVDALRIVSEGINRYQEKSNGGILMITHYKRILNYVQPDFVHVFANGQIITSGGPELADDLEANGYDRFLA | not soluble
MLKIGPYEFSSRLLLGTGKYPSLDVQKEAVEASGAEILTFAVRRMNIFSPEQPNFLEQLDLSKYKLLPNTAGAKTAEEAVRIARLAKASGLCDMIKVEVIGCDKTLLPDPIETLKAAEMLLEEGFIVLPYTSDDVVLAKRLEELGCHAIMPGASPIGSGQGIINPLNLSFIIEQANVPVIVDAGIGGPADAALAMELGADGVLLNTAVSGAADPVKMAKAMKLAVEAGRLGYEAGRIPKKRYASASSPTEGMSVV | not soluble
MVRKMNKLAKRLASTSKSRQPEPESDSDGSEFDFDNAIEEKPMEAMDIEEVESDGDDDERELQAAFAAGLLKDGLNIQVAKKRPIINKSAEMKEKLAEITKDLPWVETLEVVTPHSEMDKKVENDDFQRELNFYKQAEKAVQIAYPRLLNLGIKVLRPTDYYAEMAKSDTHMQKVRKRLLGIQEMKERQEAFRRIREEKKFAVKVQKEVLAAKNTEKKNLAEAVKKHKKGMKQQLEDMLNNVKRHGLDQDDDAPTGAFGDRLGGRGGAGRGGAGRGGSMRNAGELKRKLKSDKFGYGGKKKGMKRNNKESFNDLFGAPRGGFGGRGRGGGRGGRGGRGRR | not soluble
MAKTLYEKLFDAHVVYEAENETPLLYIDRHLVHEVTSPQAFDGLRAHGRPVRQPGKTFATMDHNVSTQTKDINACGEMARIQMQELIKNCKEFGVELYDLNHPYQGIVHVMGPEQGVTLPGMTIVCGDSHTATHGAFGALAFGIGTSEVEHVLATQTLKQGRAKTMKIEVQGKAAPGITAKDIVLAIIGKTGSAGGTGHVVEFCGEAIRDLSMEGRMTLCNMAIEMGAKAGLVAPDETTFNYVKGRLHAPKGKDFDDAVAYWKTLQTDEGATFDTVVTLQAEEISPQVTWGTNPGQVISVNDNIPDPASFADPVERASAEKALAYMGLKPGIPLTEVAIDKVFIGSCTNSRIEDLRAAAEIAKGRKVAPGVQALVVPGSGPVKAQAEAEGLDKIFIEAGFEWRLPGCSMCLAMNNDRLNPGERCASTSNRNFEGRQGRGGRTHLVSPAMAAAAAVTGHFADIRNIK | soluble
MGSDKIHHHHHHMIKIETVLDILKKDGLFREIIDQGHYHYNYSKVIFDSISYDSRKVTEDTLFFAKGAAFKKEYLLSAITQGLAWYVAEKDYEVGIPVIIVNDIKKAMSLIAMEFYGNPQEKLKLLAFTGTKGKTTAAYFAYNILSQGHRPAMLSTMNTTLDGETFFKSALTTPESIDLFDMMNQAVQNDRTHLIMEVSSQAYLVKRVYGLTFDVGVFLNISPDHIGPIEHPSFEDYFYHKRLLMEKSRAVIINSDMDHFSVLKEQVEDQDHDFYGSQFDNQIENSKAFSFSATGKLAGDYDIQLIGNFNQENAVAAGLACLRLGASLEDIKKGIAATRVPGRMEVLTQKNGAKVFIDYAHNGDSLKKLINVVETHQTGKIALVLGSTGNKGESRRKDFGLLLNQHPEIQVFLTADDPNYEDPMAIADEISSYINHPVEKIADRQEAIKAAMAITNHELDAVIIAGKGADCYQIIQGKKESYPGDTAVAENYL | not soluble
MNIMLTGATGHLGTHITNQAIANHIDHFHIGVRNVEKVPDDWRGKVSVRQLDYFNQESMVEAFKGMDTVVFIPSIIHPSFKRIPEVENLVYAAKQSGVAHIIFIGYYADQHNNPFHMSPYFGYASRLLSTSGIDYTYVRMAMYMDPLKPYLPELMNMHKLIYPAGDGRINYITRNDIARGVIAIIKNPDTWGKRYLLSGYSYDMKELAAILSEASGTEIKYEPVSLETFAEMYDEPKGFGALLASMYHAGARGLLDQESNDFKQLVNDQPQTLQSFLQENILEHHHHHH | soluble
MSLKITGNTILITGGGSGIGRALAEAFHQAGNRVIISGRRQAVLDEVTAANPGMASMVMDAGDAEGIRAFAEALVKAHPTLNAVINNAGIMRPEEIAAAPDYLDTAEETIATNLLAPIRLTAALLPHFLKQPAATVLTVSSGLAFVPMVLTPTYSATKSAIHAYSVALREQLKETSVEVIEIVPPYVQTTLMGEGQANDERAMPLEAFISEVMDILKNRPDEKEVVVERCKPLRFAAQNGNFDQVFAMINHMHEGHHHHHH | soluble
MLSTTTIGFPRIGNQRQLKFAMESYFKGDSGEAELLAVAHKVQSDAWALQKAAGIAVIGLDGTLYDQVLDTITWLGAIPPRFKHLSGLQRYYAMARGGAALDMSKFFDTNYHYLVPELGPDVLGPATAAGAPLQPDFSGPLDKLARGQAVVGRERAVPILIGPVTFVSLSRGCELPLDQAVARLLPTYCALLQQLAAAGAPEVQLHEPVLATSEGAGMRAEFETAYAQMAQAAGSVPLHLVTYYDDLGAAYPWAVQLPVAAVTLDFLGPPGAAVPSQTLALLQQHGFPADKRLGAGVVDGRSVWKDDGTAVALLRALLDTGAVSSDRLVVTSSAPLQHLPYDLGLELEAPKTPEAEPHLPPALAARLGFAKQKVEEIVSVARLAASPAAAAAAAGHGAVVQLQRLQQGKGVEDHTADIPAEWFSRPKPYDVRREQQLQLPAFPTTTIGSFPQTAEVRRLRQQLKSGRLTQAEYEGLIAGHIAHAVGVQEALGIDVLVHGEAERTDMVEYFGMQLGGMLFTRAGWVQSYGSRCVRPPLVVDDITYRGPMTCWEYKVASAYTRKPVKGMLTGPVTILNWSFPRKDISRAAQAMQLGLALRQEVAALEAAGCTIIQVDDPALREGLPLKRERWASYLSWAVDAFRLCTGVAAAGTQVVTHLCYSDFQDILPAIDRMDADVLTIENSRSDNAMMAALAAAGYGRDIGPGVYDVHSPVVPSVEFIKSRIRSFVDSGILSGRYDRIWVNPDCGLKTRGWPETIAALRNMVEAAAQARAELQLAGGAAVAPVAGGVEAAGKGAALGAAAGTSRCVDCCH | not soluble
